From article PMC10154249 (2023)

Target: His-UPCP (HIV | human)
Assay: MST

B1: Flag-PTBP1 (natural protein)
chain: not shown
B1 gave a Kd of 4.63 µM.
